# Substitutions are numbered along the chain they refer to.
# B1: 16.7Chi (antibody, V domains shown)
# VH: EVLLQQSGPELVKPGASVKISCKASGYTFTDYNMDWVKQSHGKSLEWIGDINPNVGDTIYNQKFKGKATLTVDKSSSTAYMELRSLTSEDSAVYYCVRSDDDYSWFAHWGQGTLVTVSA
# VL: SIVMTQTPKFLLVSAGDRVTITCKASQSVSNDVAWYQQKSGQSPKLLIYYASNRYTGVPDRFTGSGYGTDFTFTISTVQAELAVYFCQQDSSSPLTFGAGTKLELKR
# notes: also called chimeric antibody of the variable region of M16.7 fused with the constant region of human IgG1
# B2: 106.17Chi (antibody, V domains shown)
# VH: B1 VH with S21P, V55N, K63N, G66D, D73N, S91T, D102N, A107T, H108Y
# VL: B1 VL
# notes: also called chimeric antibody of the variable region of M106.17 fused with the constant region of human IgG1
# B3: GP42-09 (antibody, V domains shown)
# VH: QVKLQQSGAELVRPGALVKLSCKASGFNIKDYYMHWVKQRPEQGLEWIGWIDPENGNTIYDPKFQGKASITADTSSNTAYLQLSSLTSEDSAVYFCARVGDDYDGDFDYWGQGTTVTVSS
# VL: DIELTQSPASLAVSLGQRATISCRASESVDSYGDSFMHWYQQKPGQPPKLLIYRASNLESGIPARFSGSGSRTDFTLTINPVEADDVATYYCQQSYEDPYTFGGGTKLEIKR
# notes: Phage display clone
# B4: GP42-10 (antibody, V domains shown)
# VH: QVKLQQSGPDLVKPGSLVKISCKASGYTFSNYDINWVKQRPGQGLEWIGWIDPGNGRTKYNEKFEDKATLTADKSSSTAYMQLSSLTSEDSAVYFCARVGDDYDGDFDYWGQGTTVTVSS
# VL: DIELTQSPTIMSASPGEKVTMTCRASESVDSYGNSFMHWYQQKPGLPPKLLIYRASNLESGIPARFSGSGSRTDFTLTINPVEADDVATYYCQQSNEYPYTFGGGTKLEIKR
# notes: Phage display clone
# B5: GP31-52 (antibody, V domains shown)
# VH: B4 VH with K3Q, S16A, T28S, S30T, E65T, D66G, T69S, Q82V, D90N, D106G
# VL: DIELTQSPSIMAASLGQKVTMTCSASSSVSSSYLHWYQQKSGASPKPLIHRTSNLASGVPARFSGSGSGNSYSLTISSMEAEDVATYYCFQGSGYPYTFGGGTKLEIKR
# notes: Phage display clone
# B6: GP42-58 (antibody, V domains shown)
# VH: B4 VH with S16A, S30T, N31S, N55D, D66G, T69S, Q82L, E89D, D90N, D106G
# VL: B4 VL with T9A, M21I, T22S, R24S, H38N, L46Q, A64V, S69G
# notes: Phage display clone
# B7: 34.22Chi (antibody, V domains shown)
# VH: QVQLQQSGAELVRPGVSVKISCKGSGYTFTDYSIHWVKQSHAKSLEWIGVISSYYGDARHNQKFKGKATMTVDKSSSTAYMELARLTSEDSAIYYCARDGYYGYAMDYWGQGTSVTVSS
# VL: DVVMTQTPLSLPVSLGDQASISCRSTQSLVHSNGNTYLHWYLQKPGQSPKLLIYKVSYRFSGVPDRFSGSGSGTDFTLKISRVEAEDLGVYFCSQSTHVPFTFGSGTKLEIKR
# notes: also called chimeric antibody of the variable region of M34.22 fused with the constant region of human IgG1
# B8: GP42-27 (antibody, V domains shown)
# VH: QVKLQESGAELVRPGTSVKISCKASGYTFTNYDINWVKQRPGQGLEWIGWIDPGDGRTKYNENFKDKASLTADKSSSTAYMQLSSLTSEDSAVYYCARVGDDYDGGFDYWGQGTTVTVSS
# VL: B3 VL with D34N, K49R, R54A, L58Q, I110L
# notes: Phage display clone
# B9: BGF33-19 (antibody, V domains shown)
# VH: QVQLQQSGAELVRPGTSVKVSCKASGYAFTNYLIEWVKQRPGQGLEWIGVINPGSGGTNYNEKFKGKATLTADKSSSTAYMQLSSLTSDDSAVYFCAREGEKHSYYFDYWGQGTTLTVSS
# VL: B3 VL with E3V, R54L, I62V, N80D, V87A, S95N, Y96N, Y100P
# notes: Phage display clone
# B10: BGF2A2-92 (antibody, V domains shown)
# VH: EVQLVESGGGLVQPGGSLKLSCAASGFTFSDYYMYWVRQTPEKRLEWVATISDGGDYTYYPDSVKGRFTISRDNAKNNLYLQMSSLKSEDTAMYYCAREGDYYGPFAYWGQGTTLTVSS
# VL: DIVMTQSQKFMSTSVGDRVSITCKASQNVGTAVAWYQQKPGQSPKALIYSASYRYSGVPDRFTGSGSGTDFTLTISNVQSEDLAEYFCQQYNSYPYTFGGGTKLEIKR
# notes: Phage display clone
# Biological target: T1, denatured granulysin (10His tag, expressed in 293T cells, run on denaturing SDS-PAGE) (UniProt P22749 23-145, limits assumed)
# T1 construct: Same protein as native granulysin but denatured; probed on a blot with the test antibodies and anti-human-HRP; not shown: 10His tag
# T1 sequence (looked up): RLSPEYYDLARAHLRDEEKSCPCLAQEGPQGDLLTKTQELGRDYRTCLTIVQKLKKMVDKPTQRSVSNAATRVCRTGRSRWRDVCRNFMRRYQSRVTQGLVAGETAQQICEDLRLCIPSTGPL
# Experiment: blot of denaturing SDS-PAGE probed with the antibody, anti-human-HRP
# Description: The expressed granulysin may be run on a denatured SDS-PAGE and then probed with the test antibodies. Whether the test antibodies bind to the denatured granulysin can be detected using a secondary antibody (containing a reporter group; e.g., anti-human-HRP).
row,Binder,binding result
1,B1,no binding
2,B2,no binding
3,B3,no binding
4,B4,no binding
5,B5,no binding
6,B6,no binding
7,B7,no binding
8,B8,no binding

# Biological target: T2, granulysin mutant RRRRR94/97/100/102/104AAAAA (Homo sapiens (Human), UniProt P22749 23-145, limits assumed)
# T2 construct: not shown: His tag
# T2 chain: T1 sequence (looked up) with R72A, R75A, R78A, R80A, R82A
# Experiment: ELISA, antibody coated, His-tagged mutant granulysin detected with anti-His-HRP
row,Binder,binding result
1,B9,no binding

# Biological target: T3, granulysin mutant RRRR97/100/104/108AAAA (Homo sapiens (Human), UniProt P22749 23-145, limits assumed)
# T3 construct: Expressed in 293T cells, culture supernatant used; not shown: His tag
# T3 chain: T1 sequence (looked up) with R75A, R78A, R82A, R86A
# Experiment: as above
row,Binder,binding result
1,B9,no binding
2,B10,no binding
